Assay results from US20220403048A1, “BINDING MOLECULES TO ARGINASE II [ARG2]” (Cancer Research Technology Limited, priority 2019, published 2022).

Legend:
[1] = biological target: recombinant human trimeric ARG2 enzyme (construct not given) (human) (UniProt P78540); assay: cell-based or functional assay
[2] = biological target: biotinylated recombinant human trimeric ARG2 enzyme (Avi-huARG2-His10) (human) (UniProt P78540); assay: HTRF epitope competition, scFv titrated, competitor C0020187 IgG, on biotinylated human trimeric ARG2
Sequence of biotinylated recombinant human trimeric ARG2 enzyme (Avi-huARG2-His10) (human) (P78540 other isoform, or with tags, fused parts or gaps limits assumed, form in doubt): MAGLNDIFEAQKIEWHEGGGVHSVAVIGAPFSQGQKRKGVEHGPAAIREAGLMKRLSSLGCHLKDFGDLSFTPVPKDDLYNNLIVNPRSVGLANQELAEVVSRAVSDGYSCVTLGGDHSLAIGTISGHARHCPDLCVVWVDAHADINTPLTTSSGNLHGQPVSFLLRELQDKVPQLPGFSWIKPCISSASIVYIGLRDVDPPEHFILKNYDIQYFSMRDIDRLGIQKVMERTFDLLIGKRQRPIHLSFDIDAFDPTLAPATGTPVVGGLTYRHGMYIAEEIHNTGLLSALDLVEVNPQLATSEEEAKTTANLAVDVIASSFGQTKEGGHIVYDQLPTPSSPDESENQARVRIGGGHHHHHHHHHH

[3] = biological target: recombinant human trimeric ARG2 enzyme (construct not given) (human) (UniProt P78540); assay: dynamic light scattering, 8 µM each
Target sequence in this assay (P78540 23-354, form in doubt): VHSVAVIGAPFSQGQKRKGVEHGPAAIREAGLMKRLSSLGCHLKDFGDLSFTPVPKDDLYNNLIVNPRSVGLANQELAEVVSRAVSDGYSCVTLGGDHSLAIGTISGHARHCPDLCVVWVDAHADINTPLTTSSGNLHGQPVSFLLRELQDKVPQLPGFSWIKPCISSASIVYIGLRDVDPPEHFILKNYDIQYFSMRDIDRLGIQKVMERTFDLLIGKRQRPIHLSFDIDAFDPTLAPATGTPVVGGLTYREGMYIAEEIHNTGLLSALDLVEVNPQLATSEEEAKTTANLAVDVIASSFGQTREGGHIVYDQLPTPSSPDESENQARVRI

[4] = biological target: recombinant human trimeric ARG2 enzyme (construct not given) (human) (UniProt P78540); assay: size-exclusion chromatography, 8 µM each
Target sequence in this assay (P78540 23-354, form in doubt): as above

B1: C0020065 recombinant human IgG1 (antibody, V domains shown)
VH: GVNLRESGGGVVQPGRSLRLSCAASGFTFSSYAMHWVRQAPGKGLEWVAVISYDGSNKYYVDSVKGRFTISRDNSKNTLYLQMNSLRAEDTAVYYCARDSSQLWFDYWGRGTLVTVSS
VL: QSVVTQPPSVSGAPGQRVTISCTGSSSNIGTGYDVHWYQQLPGTAPKLLIYGNSNRPSGVPDRFSGSKSGTSASLAITGLQAEDEADYYCQSYDSSLSGSVVFGGGTQLTVL
In the case of B1, the EC50, In Presence of rhARG2 (T cell proliferation) [1] is reported as over 2000 nM and the Maximum % Proliferation, In Presence of rhARG2 [1] is reported as 49%.

B2: C0021142 scFv (scFv, part only; not given: linker, domain order, tag, V domains shown, not shown: another chain or arm of the molecule; small tags and cut ends)
VH: EVQLLESGGGLVQPGGSLRLSCAASGFTFSSYAMSWVRQAPGKGLEWVSAHTHSPGSTYYADSVKGRFTISRDNSKNTLYLQMNSLRAEDTAVYYCARLRADLGLYMDLWGRGTLVTVSS
VL: QSVLTQPPSVSAAPGQKVTISCSGSSSNIGNHYVSWYQQLPGTAPKLLIYDNSERPSGVPDRFSGSKSGTSATLGITGLQTGDEADYYCGTWDSSLSALVFGGGTKLTVL
With B2 the IC50 [2] was 57.8 nM and the Trimeric human ARG2 EIA IC50 [1] was 97.6 nM.

B3: C0021139 Fab (Fab, V domains shown)
VH: EVQLLESGGGLVQPGGSLRLSCAASGFTFQYDYQVWVRQAPGKGLEWVSAISGSGGSTYYADSVKGRFTISRDNSKNTLYLQMNSLRAEDTAVYYCARLRADLGLYMDLWGRGTLVTVSS
VL: QSVLTQPPSVSAAPGQKVTISCSGSSSNIGNHYVSWYQQLPGTAPKLLIYDNSERTSGIPDRFSGSKSGTSATLGITGLQTGDEADYYCGTWDELTSNLVFGGGTKLTVL
In the case of B3, the increase in average hydrodynamic radius (Rh) against ARG2-C0020187 Fab complexes [3] is reported as 1.5 nm and the SEC peak of the 1:1 molar ARG2:Fab mixture [4] is reported as 275 kDa.
